Mobile fraction of UHRF1-GFP by RICS in live ESCs expressing DPPA3-KRR and Kd data for 2 molecules are collected here from PMC7686362, “Recent evolution of a TET-controlled and DPPA3/STELLA-driven pathway of passive DNA demethylation in mammals” (Nature Communications, 2020).

Assay [1] has as its target endogenous UHRF1-GFP (Uhrf1 locus tagged with GFP in mouse ESCs) (mouse (endogenous in J1 ESCs)) (UniProt Q8VDF2).
The target in assay [2] is T1, mUHRF1 C-terminally tagged with GFP- and 6xHis-tag (mouse, UniProt Q8VDF2 1-782).
T1 construct: UHRF1, mouse (mUHRF1); also called UHRF1-eGFP; recombinant UHRF1-GFP; source: HEK 293T cells, purified (Ni-NTA beads); not shown: GFP, C-terminal, kept
T1 sequence (looked up): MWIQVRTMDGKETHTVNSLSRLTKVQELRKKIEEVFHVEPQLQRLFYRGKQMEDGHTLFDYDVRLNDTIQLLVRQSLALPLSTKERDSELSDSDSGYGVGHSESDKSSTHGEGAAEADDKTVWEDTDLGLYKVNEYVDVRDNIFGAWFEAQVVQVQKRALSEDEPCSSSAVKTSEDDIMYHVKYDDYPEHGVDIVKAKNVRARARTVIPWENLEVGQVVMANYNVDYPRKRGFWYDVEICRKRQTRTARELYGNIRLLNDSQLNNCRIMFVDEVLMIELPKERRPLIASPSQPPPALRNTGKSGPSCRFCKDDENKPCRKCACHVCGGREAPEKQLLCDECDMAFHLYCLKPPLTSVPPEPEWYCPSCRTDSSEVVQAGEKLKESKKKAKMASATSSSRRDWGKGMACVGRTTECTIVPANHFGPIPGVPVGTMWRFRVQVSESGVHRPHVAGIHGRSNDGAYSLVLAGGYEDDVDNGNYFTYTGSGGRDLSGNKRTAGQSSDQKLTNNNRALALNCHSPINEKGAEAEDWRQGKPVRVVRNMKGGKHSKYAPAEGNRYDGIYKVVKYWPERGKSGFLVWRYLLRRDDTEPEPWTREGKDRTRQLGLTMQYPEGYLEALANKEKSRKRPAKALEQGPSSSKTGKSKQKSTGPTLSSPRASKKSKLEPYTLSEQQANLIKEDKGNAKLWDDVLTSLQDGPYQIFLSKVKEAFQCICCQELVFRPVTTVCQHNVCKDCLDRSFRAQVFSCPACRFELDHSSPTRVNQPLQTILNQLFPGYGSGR
As to the kind of experiment: MST; 200 nM UHRF1-GFP-6xHis mixed with 0.15 nM to 5 µM GST-DPPA3, 30 min on ice; Monolith NT.115, 80% LED and 80% MST power. The following applies: both partners purified.

As to “DPPA3-KRR-mScarlet (K85E/R85E/R87E as printed) (from UniProt Q8QZY3 1-150) (natural protein)”, the mobile fraction of UHRF1-GFP by RICS in live ESCs expressing DPPA3-KRR in assay [1] was 32.4%.

B1: GST-mDPPA3 wild-type (natural protein, mouse, UniProt Q8QZY3 1-150, looked up)
chain: MEEPSEKVDPMKDPETPQKKDEEDALDDTDVLQPETLVKVMKKLTLNPGVKRSARRRSLRNRIAAVPVENKSEKIRREVQSAFPKRRVRTLLSVLKDPIAKMRRLVRIEQRQKRLEGNEFERDSEPFRCLCTFCHYQRWDPSENAKIGKN
notes: DPPA3, mouse, fragment corresponding to the full-length protein amplified from mouse DPPA3 cDNA, in pGEX4T-3; also called GST-DPPA3 WT; D3^WT; source: E. coli BL21-CodonPlus, purified (Glutathione Sepharose, PD10 desalting)
With B1, binding in assay [2] was characterised by a dissociation constant (Kd) of 440 nM.
